Laboratory results as given in patent publication US20220204580A1 (AstraZeneca / MedImmune, published 2022).
Numbered stars: 1 amine (or outer) side, 2 acyl side, 3 side chain; on linkers, the order of the positions; unused ones are H or OH. Bridge positions count the residues as written; N and C are the ends. Square brackets hold non-standard residues; d marks the D form. Side chains are listed from the residue outwards. Ends that are not written are not given here. * marks the point of attachment. C20 diacid = O=C(O)CCCCCCCCCCCCCCCCCCC(=O)*; C18 diacid = O=C(O)CCCCCCCCCCCCCCCCC(=O)*; γGlu = O=C(O)[C@H](CCC(=O)[*:2])N[*:1]; αMeF = C[C@](N)(Cc1ccccc1)C(=O)O

Assays:
Experiment in all cases: cell-based or functional assay
[1] = target: T1, human amylin receptor (calcitonin receptor co-expressed with receptor activity modifying protein, RAMP3) (human, UniProt P30988 25-474; O60896 24-148)
T1 sequence (looked up) 1: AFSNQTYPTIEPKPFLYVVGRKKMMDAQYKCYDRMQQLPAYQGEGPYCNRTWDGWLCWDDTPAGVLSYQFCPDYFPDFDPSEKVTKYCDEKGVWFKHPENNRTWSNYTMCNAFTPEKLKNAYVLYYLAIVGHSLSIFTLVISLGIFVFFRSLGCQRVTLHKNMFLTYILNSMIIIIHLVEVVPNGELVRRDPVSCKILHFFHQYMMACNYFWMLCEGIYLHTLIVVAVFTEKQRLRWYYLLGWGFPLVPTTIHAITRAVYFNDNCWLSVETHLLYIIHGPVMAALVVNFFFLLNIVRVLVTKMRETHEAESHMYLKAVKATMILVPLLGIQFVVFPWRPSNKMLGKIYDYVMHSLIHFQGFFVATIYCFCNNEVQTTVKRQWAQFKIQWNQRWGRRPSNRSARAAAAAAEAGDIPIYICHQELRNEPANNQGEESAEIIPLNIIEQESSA
T1 sequence (looked up) 2: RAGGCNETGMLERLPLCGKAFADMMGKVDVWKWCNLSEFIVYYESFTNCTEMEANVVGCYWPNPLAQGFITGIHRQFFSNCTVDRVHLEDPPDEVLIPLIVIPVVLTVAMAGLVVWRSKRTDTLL

[2] = target: T2, human calcitonin receptor (human, UniProt P30988 25-474)
T2 sequence (looked up): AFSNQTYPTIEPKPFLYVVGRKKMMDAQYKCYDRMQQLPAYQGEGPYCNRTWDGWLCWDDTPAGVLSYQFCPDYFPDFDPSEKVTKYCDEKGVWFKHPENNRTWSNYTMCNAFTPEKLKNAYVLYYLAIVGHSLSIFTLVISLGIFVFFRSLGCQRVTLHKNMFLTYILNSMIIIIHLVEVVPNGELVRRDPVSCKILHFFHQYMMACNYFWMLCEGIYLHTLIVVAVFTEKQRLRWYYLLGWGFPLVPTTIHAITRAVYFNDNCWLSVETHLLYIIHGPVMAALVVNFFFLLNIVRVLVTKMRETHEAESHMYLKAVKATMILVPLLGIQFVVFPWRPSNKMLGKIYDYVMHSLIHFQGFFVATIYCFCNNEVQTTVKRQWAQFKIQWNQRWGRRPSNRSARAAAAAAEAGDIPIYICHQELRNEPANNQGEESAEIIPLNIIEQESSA

[3] = target: T3, rat amylin receptor (calcitonin receptor co-expressed with receptor activity modifying protein, RAMP3) (rat, UniProt P32214 25-516; Q9JJ73 23-147)
T3 sequence (looked up) 1: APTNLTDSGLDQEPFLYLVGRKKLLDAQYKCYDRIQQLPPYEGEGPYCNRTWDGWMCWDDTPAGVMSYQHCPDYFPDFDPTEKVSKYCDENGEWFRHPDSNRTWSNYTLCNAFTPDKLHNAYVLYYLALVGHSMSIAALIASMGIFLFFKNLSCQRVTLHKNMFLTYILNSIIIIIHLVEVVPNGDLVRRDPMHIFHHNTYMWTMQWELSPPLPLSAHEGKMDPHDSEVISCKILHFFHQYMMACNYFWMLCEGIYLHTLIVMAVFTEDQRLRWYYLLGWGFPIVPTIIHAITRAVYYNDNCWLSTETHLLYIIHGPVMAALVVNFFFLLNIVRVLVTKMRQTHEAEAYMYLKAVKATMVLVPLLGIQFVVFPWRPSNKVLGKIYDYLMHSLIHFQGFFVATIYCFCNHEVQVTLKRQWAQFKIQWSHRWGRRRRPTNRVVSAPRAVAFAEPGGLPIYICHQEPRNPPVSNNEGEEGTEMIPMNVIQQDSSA
T3 sequence (looked up) 2: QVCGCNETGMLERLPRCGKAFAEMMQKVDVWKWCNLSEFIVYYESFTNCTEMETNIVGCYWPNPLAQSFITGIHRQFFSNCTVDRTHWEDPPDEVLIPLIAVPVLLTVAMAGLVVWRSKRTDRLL

[4] = target: T4, rat calcitonin receptor (rat, UniProt P32214 25-516)
T4 sequence (looked up): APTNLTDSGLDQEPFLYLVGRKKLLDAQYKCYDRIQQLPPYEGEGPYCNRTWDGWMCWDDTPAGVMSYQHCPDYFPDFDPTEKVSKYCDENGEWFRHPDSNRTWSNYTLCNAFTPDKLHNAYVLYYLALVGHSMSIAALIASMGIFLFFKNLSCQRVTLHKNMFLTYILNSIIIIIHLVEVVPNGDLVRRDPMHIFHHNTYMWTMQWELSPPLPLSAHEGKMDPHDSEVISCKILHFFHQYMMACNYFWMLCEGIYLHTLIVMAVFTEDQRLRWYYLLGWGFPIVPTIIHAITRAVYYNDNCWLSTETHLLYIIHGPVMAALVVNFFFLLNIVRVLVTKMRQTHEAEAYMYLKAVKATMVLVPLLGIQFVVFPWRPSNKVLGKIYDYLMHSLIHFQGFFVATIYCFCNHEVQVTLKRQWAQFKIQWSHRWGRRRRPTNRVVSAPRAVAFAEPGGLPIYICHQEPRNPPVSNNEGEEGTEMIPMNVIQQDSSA

B1: Peptide 10 (SEQ ID NO: 10) (peptide)
peptide: {C18 diacid-γGlu}-CNTATCATQRLAEFLRHSSNN[αMeF]GPILPPTNVGSNTY-NH2
modifications: disulfide 1-6; numbers in words are those of the source; also: K1 deleted
[1]
  EC50 (cAMP production): 0.183 nM
  Ratio (EC50 hCTR / EC50 hAMYR3): 15
[2]
  EC50 (cAMP production): 2.73 nM
[3]
  EC50 (cAMP production): 0.0121 nM
[4]
  EC50 (cAMP production): 2.78 nM

B2: Peptide 12 (SEQ ID NO: 12) (peptide)
peptide: K([γGlu-C18 diacid])KCNTATCATQRLAEFLRHSSNN[αMeF]GPILPPTNVGSNTY-NH2
modifications: disulfide 3-8; N-terminus assumed
SMILES: CC[C@H](C)[C@H](NC(=O)[C@@H]1CCCN1C(=O)CNC(=O)[C@](C)(Cc1ccccc1)NC(=O)[C@H](CC(N)=O)NC(=O)[C@H](CC(N)=O)NC(=O)[C@H](CO)NC(=O)[C@H](CO)NC(=O)[C@H](Cc1c[nH]cn1)NC(=O)[C@H](CCCNC(=N)N)NC(=O)[C@H](CC(C)C)NC(=O)[C@H](Cc1ccccc1)NC(=O)[C@H](CCC(=O)O)NC(=O)[C@H](C)NC(=O)[C@H](CC(C)C)NC(=O)[C@H](CCCNC(=N)N)NC(=O)[C@H](CCC(N)=O)NC(=O)[C@@H](NC(=O)[C@H](C)NC(=O)[C@@H]1CSSC[C@H](NC(=O)[C@H](CCCCN)NC(=O)[C@@H](N)CCCCNC(=O)CC[C@H](NC(=O)CCCCCCCCCCCCCCCCC(=O)O)C(=O)O)C(=O)N[C@@H](CC(N)=O)C(=O)N[C@@H]([C@@H](C)O)C(=O)N[C@@H](C)C(=O)N[C@@H]([C@@H](C)O)C(=O)N1)[C@@H](C)O)C(=O)N[C@@H](CC(C)C)C(=O)N1CCC[C@H]1C(=O)N1CCC[C@H]1C(=O)N[C@H](C(=O)N[C@@H](CC(N)=O)C(=O)N[C@H](C(=O)NCC(=O)N[C@@H](CO)C(=O)N[C@@H](CC(N)=O)C(=O)N[C@H](C(=O)N[C@@H](Cc1ccc(O)cc1)C(N)=O)[C@@H](C)O)C(C)C)[C@@H](C)O
[1]
  EC50 (cAMP production): 0.158 nM
  Ratio (EC50 hCTR / EC50 hAMYR3): 8
[2]
  EC50 (cAMP production): 1.22 nM
[3]
  EC50 (cAMP production): 0.005 nM
[4]
  EC50 (cAMP production): 0.107 nM

B3: Peptide 112 (SEQ ID NO: 112) (peptide)
peptide: {C20 diacid-γGlu}-KCNTATCATQRLANFLVHSSNNFGPILPPTNVGSNTY-NH2
modifications: disulfide 2-7
[1]
  EC50 (cAMP production): 0.861 nM
  Ratio (EC50 hCTR / EC50 hAMYR3): 2
[2]
  EC50 (cAMP production): 1.33 nM
[3]
  EC50 (cAMP production): 0.016 nM
[4]
  EC50 (cAMP production): 0.259 nM
